Key:
[1] = molecular target: T1, UL9-COOH (C-terminal DNA-binding fragment of UL9) (Herpes simplex virus 1, UniProt P10193 P10193:535-851); assay: EMSA; flanks have little effect on off-rate; particularly disrupted by doxorubicin; settings: tags: GST fusion from pGEX-2T, thrombin-cleaved; E. coli JM109; bacterial extracts also used; label: 32P
[2] = molecular target: T1, UL9-COOH (C-terminal DNA-binding …); assay: competition; unlabelled competitor in dissociation assay; settings: tags: GST fusion from pGEX-2T, thrombin-cleaved; E. coli JM109; bacterial extracts also used
[3] = molecular target: T1, UL9-COOH (C-terminal DNA-binding …); assay: EMSA; flanks have little effect on off-rate; filter binding same; disrupted by actinomycin D; settings: tags: GST fusion from pGEX-2T, thrombin-cleaved; E. coli JM109; bacterial extracts also used; label: 32P
[4] = molecular target: T1, UL9-COOH (C-terminal DNA-binding …); assay: EMSA; flanks have little effect on off-rate; disrupted by actinomycin D and doxorubicin; settings: tags: GST fusion from pGEX-2T, thrombin-cleaved; E. coli JM109; bacterial extracts also used; label: 32P
[5] = molecular target: T1, UL9-COOH (C-terminal DNA-binding …); assay: EMSA; flanks have little effect on off-rate; disrupted by distamycin A; settings: tags: GST fusion from pGEX-2T, thrombin-cleaved; E. coli JM109; bacterial extracts also used; label: 32P
[6] = molecular target: T1, UL9-COOH (C-terminal DNA-binding …); assay: EMSA; flanks have little effect on off-rate; disrupted by distamycin A and doxorubicin; settings: tags: GST fusion from pGEX-2T, thrombin-cleaved; E. coli JM109; bacterial extracts also used; label: 32P
[7] = molecular target: T1, UL9-COOH (C-terminal DNA-binding …); assay: EMSA; flanks have little effect on off-rate; settings: tags: GST fusion from pGEX-2T, thrombin-cleaved; E. coli JM109; bacterial extracts also used; label: 32P
[8] = molecular target: T1, UL9-COOH (C-terminal DNA-binding …); assay: EMSA; flanks have little effect on off-rate; disrupted by doxorubicin; settings: tags: GST fusion from pGEX-2T, thrombin-cleaved; E. coli JM109; bacterial extracts also used; label: 32P

T1 sequence (P10193 535-851, one chain of several): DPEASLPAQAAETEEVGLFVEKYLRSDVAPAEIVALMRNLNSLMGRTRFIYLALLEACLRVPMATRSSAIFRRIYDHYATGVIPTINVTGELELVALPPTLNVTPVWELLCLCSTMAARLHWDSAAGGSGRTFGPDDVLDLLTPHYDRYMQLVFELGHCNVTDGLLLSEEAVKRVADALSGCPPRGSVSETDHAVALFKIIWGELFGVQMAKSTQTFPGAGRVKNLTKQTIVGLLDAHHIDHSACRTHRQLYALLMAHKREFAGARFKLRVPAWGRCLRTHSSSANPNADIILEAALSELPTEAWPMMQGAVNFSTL

B1: oriEco3 (dsDNA)
DNA 1: GGCGAATTCGATCGTTCGCACTTCGTCCCAAT
DNA 2: ATTGGGACGAAGTGCGAACGATCGAATTCGCC
[1]
  binding result: binds

B2: 17 bp UL9 competitor (dsDNA)
DNA 1: GGTCGTTCGCACTTCGC
DNA 2: GCGAAGTGCGAACGACC
[2]
  binding result: binds

B3: UL9 CCCG (dsDNA)
DNA 1: GGCCCGCCCCGTTCGCACTTCCCGCCCCGG
DNA 2: CCGGGGCGGGAAGTGCGAACGGGGCGGGCC
[3]
  binding result: binds

B4: UL9 GGGC (dsDNA)
DNA 1: GGCGGGCGCCGTTCGCACTTGGGCGGGCGG
DNA 2: CCGCCCGCCCAAGTGCGAACGGCGCCCGCC
[4]
  binding result: binds

B5: UL9 ATAT (dsDNA)
DNA 1: GGATATATACGTTCGCACTTTAATTATTGG
DNA 2: CCAATAATTAAAGTGCGAACGTATATATCC
[5]
  binding result: binds

B6: UL9 polyA (dsDNA)
DNA 1: GGAAAAAAACGTTCGCACTTAAAAAAAAGG
DNA 2: CCTTTTTTTTAAGTGCGAACGTTTTTTTCC
[5]
  binding result: binds

B7: UL9 polyT (dsDNA)
DNA 1: GGTTTTTTTCGTTCGCACTTTTTTTTTTGG
DNA 2: CCAAAAAAAAAAGTGCGAACGAAAAAAACC
[6]
  binding result: binds

B8: FIG. 5 oligo SEQ ID NO:610 (dsDNA)
DNA 1: GGACGCACGCGTTCGCACTTGCAGCAGCGG
DNA 2: CCGCTGCTGCAAGTGCGAACGCGTGCGTCC
[7]
  binding result: binds

B9: ATori1 (dsDNA)
DNA 1: GCGTATATATCGTTCGCACTTCGTCCCAAT
DNA 2: ATTGGGACGAAGTGCGAACGATATATACGC
[7]
  binding result: binds

B10: oriEco2 (dsDNA)
DNA 1: GGCGAATTCGACGTTCGCACTTCGTCCCAAT
DNA 2: ATTGGGACGAAGTGCGAACGTCGAATTCGCC
[8]
  binding result: binds
